In article PMC9772109 (Immunity, 2022):

Biological target: H1 HA (recombinant HA of Figure 4E) (Influenza A virus, H1 subtype; strain …, UniProt A0A1J0CXU0)
Experiment: BLI

B1: 789-203-3C12 AA variant mAb (Cys33Ala/Cys52Ala heavy chain with the 789-203-3C12 light chain), IgG (antibody, V domains shown)
VH: QVQLQESGPGLVKPSEILSLTCAVSGGSFSSYAWGWIRQPPGKGLEWIGSIAGSGGSNYLNPSLKSRVTLSVDTSKNQFSLILNSVTAADTAVYYCAREGITIFGVVIPRVLDSWGQGAVVTVSS
VL: DIQMTQSPSSLSASVGDTVTITCRASQSISSWLAWYQQKPGKAPNLLIYRASTLQSGVPSRFSGSGSGTDFTLTISSLQSEDFATYFCQQSTSSPFTFGPGTKLDIK
  binding result: binds
